Results as given in the Immune Epitope Database (IEDB).

Key:
[1] = target: HLA-B*07:02; assay: IEDB peptide-MHC binding, purified MHC/competitive/radioactivity; filed as Kd, often an IC50 or EC50 that approximates it; ≥ and ≤ were set here for values at or beyond the usual limits of such assays
[2] = target: HLA-B*35:01; assay: as above
[3] = target: HLA-B*51:01; assay: as above
[4] = target: HLA-B*53:01; assay: as above
[5] = target: HLA-B*54:01; assay: as above
[6] = target: HLA-B*27:05; assay: IEDB peptide-MHC binding, purified MHC/direct/fluorescence; filed as Kd, often an IC50 or EC50 that approximates it; ≥ and ≤ were set here for values at or beyond the usual limits of such assays; conditions: source organism: Mammarenavirus lassaense
[7] = target: HLA-B*48:01; assay: as above
[8] = target: HLA-A*02:01; assay: IEDB peptide-MHC binding, purified MHC/competitive/fluorescence; filed as Kd, often an IC50 or EC50 that approximates it; ≥ and ≤ were set here for values at or beyond the usual limits of such assays; conditions: source organism: Variola virus
[9] = target: HLA-A*02:02; assay: IEDB peptide-MHC binding, purified MHC/competitive/radioactivity; filed as Kd, often an IC50 or EC50 that approximates it; ≥ and ≤ were set here for values at or beyond the usual limits of such assays; conditions: source organism: Vaccinia virus WR
[10] = target: HLA-A*02:03; assay: as above; conditions: source organism: Vaccinia virus WR
[11] = target: HLA-A*02:06; assay: as above; conditions: source organism: Vaccinia virus WR
[12] = target: HLA-A*03:01; assay: IEDB peptide-MHC binding, purified MHC/competitive/fluorescence; filed as Kd, often an IC50 or EC50 that approximates it; ≥ and ≤ were set here for values at or beyond the usual limits of such assays
[13] = target: HLA-A*02:01; assay: IEDB peptide-MHC binding, purified MHC/competitive/radioactivity; filed as Kd, often an IC50 or EC50 that approximates it; ≥ and ≤ were set here for values at or beyond the usual limits of such assays; conditions: source organism: Vaccinia virus WR
[14] = target: HLA-B*18:01; assay: IEDB peptide-MHC binding, purified MHC/direct/fluorescence; filed as Kd, often an IC50 or EC50 that approximates it; ≥ and ≤ were set here for values at or beyond the usual limits of such assays; conditions: source organism: Mammarenavirus lassaense
[15] = target: HLA-B*40:01; assay: as above; conditions: source organism: Mammarenavirus lassaense
[16] = source organism: Vaccinia virus WR
[17] = source organism: SARS coronavirus Tor2

Sequence | Kd [1, 16] [nM] | Kd [2, 16] [nM] | Kd [3, 16] [nM] | Kd [4, 16] [nM] | Kd [5, 16] [nM] | further results
VPEFAKQYVL | 25.8 | 30.7 | 1550 | 85.2 | 1860 | 
IPVDLVKSSF | 20.5 | 5.43 | 5380 | 8.61 | 297 | 
IPFDDIVRTM | 2940 | 192 | 8690 | 1020 | 4250 | 
RKLLESQGR |  |  |  |  |  | Kd [6]: 451 nM; Kd ([7]; source organism: Mammarenavirus lassaense): ≥ 20000 nM
QIFNIISYI |  |  |  |  |  | Kd [8]: 31.1 nM; Kd [9]: 111 nM; Kd [10]: 15.1 nM; Kd [11]: 1.78 nM
KVYTMDGEY |  |  |  |  |  | Kd ([12]; source organism: West Nile virus): 37.6 nM
SPLFLIVAA |  |  |  |  |  | Kd [1, 17]: 481 nM; Kd [2, 17]: 1040 nM; Kd [3, 17]: 12100 nM; Kd [4, 17]: ≥ 44700 nM; Kd [5, 17]: 2.52 nM
TLYDRYLIK |  |  |  |  |  | Kd ([12]; source organism: Campylobacter lari RM2100): 10.9 nM
FRKGSSIGK |  |  |  |  |  | Kd ([7]; source organism: dengue virus type 1): ≥ 20000 nM
LPESDLDKV | 7810 | ≥ 22600 | 6570 | 7280 | 2290 | 
YLLFASMGFK | ≥ 69600 | ≥ 69900 |  |  |  | Kd [13]: 2570 nM
PEDPVEIAL |  |  |  |  |  | Kd [14]: ≥ 20000 nM; Kd [15]: 160 nM
RPRFDDAYNI | 5.26 | 15000 | 3410 | 32.7 | 2380 | 
RLSVKTFVH |  |  |  |  |  | Kd ([12]; source organism: Coxiella burnetii RSA 493): 27.6 nM
